Test results as given in publication PMC4749439 (Cell metabolism, 2015).
Residue numbers refer to the chain shown, from its start. In names and notes the source's numbering stands. No end group written: not given here.

T1: S^35-SDHB (human, UniProt P21912 1-280, S^35 label)
T1 sequence (looked up): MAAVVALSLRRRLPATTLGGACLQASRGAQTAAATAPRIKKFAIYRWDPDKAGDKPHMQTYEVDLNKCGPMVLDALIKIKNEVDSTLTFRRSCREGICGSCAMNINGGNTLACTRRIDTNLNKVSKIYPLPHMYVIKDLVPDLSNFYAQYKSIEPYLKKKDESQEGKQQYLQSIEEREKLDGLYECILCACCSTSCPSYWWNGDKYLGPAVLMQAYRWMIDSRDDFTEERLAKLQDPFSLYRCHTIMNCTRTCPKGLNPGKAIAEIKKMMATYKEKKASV

T2: S^35-HSC20 (UniProt Q8IWL3 1-235, S^35 label)
T2 sequence (looked up): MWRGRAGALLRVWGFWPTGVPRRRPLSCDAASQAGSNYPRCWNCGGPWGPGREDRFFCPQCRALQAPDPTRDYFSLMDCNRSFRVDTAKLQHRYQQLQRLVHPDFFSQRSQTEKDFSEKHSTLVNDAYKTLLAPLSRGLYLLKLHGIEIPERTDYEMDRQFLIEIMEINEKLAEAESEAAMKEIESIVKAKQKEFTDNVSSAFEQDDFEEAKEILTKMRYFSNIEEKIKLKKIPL

B1: SDHB146-218 (domain or fragment, human, UniProt P21912 146-218, looked up)
chain: FYAQYKSIEPYLKKKDESQEGKQQYLQSIEEREKLDGLYECILCACCSTSCPSYWWNGDKYLGPAVLMQAYRW
B2: SDHAF1 clone 5 (residues 61–115) (domain or fragment, human, UniProt A6NFY7 61-115, looked up)
chain: LQLLRSGHATAMGAFVRPRAPTGEPGGVGCQPDDGDSPRNPHDSTGAPETRPDGR
modifications: also: 35S label
B3: SDHAF1 clone 4 (residues 50–115) (domain or fragment, human, UniProt A6NFY7 50-115, looked up)
chain: IEYLYRRGRRQLQLLRSGHATAMGAFVRPRAPTGEPGGVGCQPDDGDSPRNPHDSTGAPETRPDGR
modifications: also: 35S label
B4: SDHAF1 clone 2 (residues 40–115) (domain or fragment, human, UniProt A6NFY7 40-115, looked up)
chain: AGLPRSDVLRIEYLYRRGRRQLQLLRSGHATAMGAFVRPRAPTGEPGGVGCQPDDGDSPRNPHDSTGAPETRPDGR
modifications: S^35 label
B5: SDHAF1 clone 3 (residues 1–35) (domain or fragment, human, UniProt A6NFY7 1-35, looked up)
chain: MSRHSRLQRQVLSLYRDLLRAGRGKPGAEARVRAE
modifications: also: 35S label
B6: S^35-labeled FLAG-tagged SDHAF1 wild type (in vitro) (natural protein, human, UniProt A6NFY7 1-115, looked up)
chain: MSRHSRLQRQVLSLYRDLLRAGRGKPGAEARVRAEFRQHAGLPRSDVLRIEYLYRRGRRQLQLLRSGHATAMGAFVRPRAPTGEPGGVGCQPDDGDSPRNPHDSTGAPETRPDGR
modifications: S^35 label
B7: SDHAF1 G57R (in vitro) (natural protein, human, UniProt A6NFY7 1-115, looked up)
chain: B6 chain with G57R
modifications: S^35 label
B8: SDHAF1 second LYR to triple alanines (in vitro) (natural protein, human, UniProt A6NFY7 1-115, looked up)
chain: B6 chain with L53A, Y54A, R55A
modifications: S^35 label
B9: SDHAF1 clone 1 (residues 1–39) (domain or fragment, human, UniProt A6NFY7 1-39, looked up)
chain: MSRHSRLQRQVLSLYRDLLRAGRGKPGAEARVRAEFRQH
modifications: also: 35S label

Biological target: B6
Assay: pull-down

Binding result, binds:
B1

Biological target: T1, S^35-SDHB
Assay: pull-down

Binding result, binds:
B2
B3
B4

Biological target: T2, S^35-HSC20
Assay: pull-down

Binding result, binds:
B5
B6
B7
B8
B9
